Consider 2 molecules from patent US8003357B2, “Acidophilic enzymes” (Helmholtz-Zentrum Fuer Infektionsforschung GmbH, priority 2005, dated 2011).

Substrate in series [1]: CC(=O)Oc1ccc([N+](=O)[O-])cc1
The experiment in a line: EstFA hydrolysis of p-nitrophenol esters and triglycerides. It is filed as biochemical, Ferroplasma acidiphilum. Conditions: other: EstFA expressed in E. coli. The method, then:
(§1) Hydrolysis of p-nitrophenol propionate was observed spectrophotometrically at 405 nm, optionally in and 96-well plates. The substrate specificity of acidic esterase EstFA obtainable from Ferroplasma acidiphilum was characterized using the heterologously expressed EstFA of Example 6 (expressed in E. coli), using p-nitrophenol esters and triglycerides as summarised in following Table IV:
(§2) The above substrate specificities were tested in 96-well plates, using 100 mM citrate buffer (pH 2.0) in the presence of 5 μg pure EstFA. For the substrate, the concentrations between 10 nM and 10 mM were chosen. Progress of the reaction was followed by spectrophotometry using p-nitrophenol propionate as an indicator. The reaction was stopped after 10 hours by adjusting the pH to 8.0 by adding sodium hydroxide from a 100 mM stock solution and phenol red (0.8 mM) as a pH indicator. Activities and selectivities were examined according to Mam Fai Lui et al. (2001). Ester hydrolysis of enantiomerically pure esters was measured colorimetrically in 5.0 mM EPPS buffer (N-(2-hydroxyethyl) piperazine-N′-(3′-propanesulfonic acid) at pH 8.0 and phenol red after termination of the reaction.

Substrate in series [2]: CCC(=O)Oc1ccc([N+](=O)[O-])cc1
The description is as above. In kind it is biochemical, Ferroplasma acidiphilum. The note with it: other: EstFA expressed in E. coli. The method, then:
as §1, §2

Substrate in series [3]: CCCC(=O)OCC(COC(=O)CCC)OC(=O)CCC
Described as above. In kind it is biochemical, Ferroplasma acidiphilum. Conditions: other: EstFA expressed in E. coli. The method, then:
as §1, §2

Substrate in series [4]: CCCC(=O)Oc1ccc([N+](=O)[O-])cc1
The description is as above. In kind it is biochemical, Ferroplasma acidiphilum. The note with it: other: EstFA expressed in E. coli. The procedure:
as §1, §2

Substrate in series [5]: CCCCCCCC(=O)Oc1ccc([N+](=O)[O-])cc1
The description is as above. In kind it is biochemical, Ferroplasma acidiphilum. Conditions: other: EstFA expressed in E. coli. The method, then:
as §1, §2

Substrate in series [6]: CCCCCCCCCC(=O)Oc1ccc([N+](=O)[O-])cc1
The series is described as above. In kind it is biochemical, Ferroplasma acidiphilum. Conditions: other: EstFA expressed in E. coli. The method, then:
as §1, §2

Substrate in series [7]: CCCCCCCCCCCC(=O)Oc1ccc([N+](=O)[O-])cc1
The series is described as above. In kind it is biochemical, Ferroplasma acidiphilum. Conditions: other: EstFA expressed in E. coli. The procedure:
as §1, §2

Series [8] in a line: pH and temperature dependence, stability and activity of recombinant acidic enzymes. It is filed as biochemical. The procedure:
The acidic enzymes according to the invention were expressed in E. coli using the genomiccoding sequence for the respective enzyme from Ferroplasma acidiphilum, which are described in detail below. For enzymatic conversions, reaction conditions were in 100 mM sodium acetate buffer, 100 mM citrate buffer, 100 mM HEPES buffer for 2 minutes at 30° C., using p-nitrophenol propionate as the substrate for esterase, starch in the case of glycosidases, and HindIII digested λ DNA for ligase.
The activity was assayed using p-nitrophenol propionate as a substrate for esterase, starch for αGluFA and GlyFA1, GlyFA2, and HindIII digested λ DNA for LigFA.
The acidic enzymes according to the invention in vitro show similar elevated reaction temperatures. Substrates were as described for FIG. 2 above.
An overview of catalytic and molecular properties of acidic enzymes that were heterologously expressed in E. coli is given in the following Table III: […]

A short description of series [9]: Fe2+ content (ICP-MS) and Fe2+ dependence of activity, dialysis against EDTA. The note with it: relative to wild type = 100; after dialysis against 1 mM EDTA; 100 mM sodium citrate, 10 mM FeCl2. It is filed as biochemical. The procedure:
The UV-VIS absorption spectra of purified acidic enzymes are shown in FIG. 4, wherein the uninterrupted lines refer to Fe^2+ containing enzymes and the interrupted lines refer to enzymes after dialysis against EDTA containing buffer. The λ-max values found at ca. 572 nm correlate with the Fe^2+ content, i.e. disappear after incubation with EDTA or DTT for 24 h. ICP-MS analysis confirmed the presence of 0.82±0.10 mol Fe in EstFA, 0.34±0.08 mol Fe in αGluFA, […] and 0.63±0.09 mol Fe in LigFA.
In FIG. 5, relative activities of acidic enzymes with varying content of Fe^2+ are shown. For analysis, purified enzymes were incubated in 1 mM EDTA. At time intervals indicated, two aliquots were removed, one was used for hydrolysis of respective substrates, the other for ICP-MS analysis of Fe. For relative activities, activities before incubation with EDTA were used as 100% values.
When further investigating the dependence of the acidic enzymes according to the invention on Fe^2+, relative activity for EstFA, αGluFA and LigFA were investigated for their natural Fe^2+ content, e.g. wild-type, which was set to 100%, in comparison to the activity after dialysis against a 1 mM EDTA containing buffer.

A short description of series [10]: Transglucosylation of maltose catalyzed by αGluFA. In kind it is biochemical. From the text: αGluFA is also suitable for the transfer of glucosyl groups from maltose to selectively produce a maltotriose. […] The reaction was followed by HPLC measurements.

B1: EstFA (Ferroplasma acidiphilum) (protein)
chain: MHLMNMVDPDFNSLIELSKSAGDMTKIEPAMLRNFLDESSLSSRGAPVEIKEIKDYKIKLDGRTLNARMYDDNNAKSAILYYHGGGFLFGNIETYDNYCRFLAKESGVKIISIEYRLAPEHKFPDAFNDAYDSFHYIAKKKKDFGIEGRIGVAGDSAGANLAAALCLKCRDGKTEMPAVQVLFYPSLAPDNFSRSFIEYSDNYVLTGKMIRYFGNMYSKNMQDLINPYFSPLVADDFSNLPPAIMVTNEYDPLRDPEETYVKKLREAGVRAVGIRGIGMIHGSATDFEVSDGARNIVKMVARIIPDYL
B1: the Km is 0.39 ± 0.08 mg/mL in [1]; 0.20 ± 0.04 mg/mL in [2]; 1.75 ± 0.14 mg/mL in series [3]; 1.75 ± 0.12 mg/mL in [4]; 1.68 ± 0.12 mg/mL in series [5]; 4.30 ± 0.42 mg/mL in series [6]. In [7], the Michaelis-Menten constant (Km) amounted to 4.41 ± 0.38 mg/mL. In addition, the kcat in series [1] is 860 ± 21 s⁻¹; in series [2] it was 1190 ± 25 s⁻¹; in series [3], 1890 ± 27 s⁻¹; in [4], 2300 ± 30 s⁻¹; in [5], 239 ± 12 s⁻¹; in [6], 179 ± 4 s⁻¹. Besides, the kcat in series [7] worked out at 120 ± 4 s⁻¹.

B2: αGluFA: acidic glucosidase from Ferroplasma acidiphilum, 531 amino acids, Seq ID No. 11 (protein, listed as Ferroplasma acidiphilum)
chain: INSLYILNHKVIIAVAVSAILIAMVFAGANIPYPGYNPTDHLISGKHPISNVSEVPKNFTLSGNVSNSNNNLPLSGTITVSNSTMSRTFNTSSNGSYNITLPQGNYSISSSIPGFQNYSSTINLDSNKTQNISTPPATTIGNGINQVPGSTNVSTLVPYLNNSIMSGGLNTDNITGTFDKNITIDLGKKLNNTQFVVLMKLDGAVYSYNWVTNGSGMAKLFLKYSGNYTMSAYTLYYNSSVIHYNTANNDTARFNMTERITFISSVILQSAVPLHDNSSVANSTLTVKGGVFSVPSLSVNSNLTGTYYKYEVPVGFYNFAYSNAHYVSKNFGVDVTGNSTVNKTIDPYLISINIRNNTGNTFNYTLGSTFYSGNGIHMATSGITTLLVFHDGKIVYDNTILLTSANPYYQLNLTISNKNLTFNGIETDSTNLSIVYSGNVTSNFYIASLEFENFSTSATNGMIIISGAASGSYPLDSGLYTYNMSQSLPTSAGNLTIKLVYDNDSKVSTDGRMTVEVYGYNISTLGNYITE
modifications: CDS (1)..(1596) alpha glu FA, in Figure 11 designated sequence 5a
With B2, the “enzymatic stability at elevated temperatures” value in series [8] (FIG. 2, LigFA pH 3.0, EstFA and αGluFA pH 2.0 at 40 and 50° C., GlyFA1 and GlyFA2 pH 4.0 at 40° C.) is “good stability”. In series [8] (at 65° C.), the enzymatic activity retained result is given as “approximately 50%”. For the same molecule, the “temperature up to which the enzyme was stable” value in series [8] (for 60 minutes) is “up to 60 °C”. Also, the “Optimum pH” value in series [8] (in the presence of Fe2+) is on record as 2.0; in [8] (measured at optimum temperature), 2.5-3.0. Also, in series [8] (measured at optimum pH), the Optimum temperature came out at 60 °C. Further, the original activity retained result in series [8] (pH 1.5 to 3.9, incubation at 20° C. over 24 hours) is recorded as “more than 80%”. The “activity, +EDTA” value in [9] was found to be 5.40%. Moreover, the “percentage of transglucosylated maltose” value in series [10] (over the course of the reaction) is given as “more than 70%”. The “product selectivity of synthesis” value in series [10] (pH 3.0, up to 300 g/L maltotriose) was “selectively synthesizes maltotriose”. Moreover, the maltose in series [10] (reaction time 5) was 456 g/L; in [10] (reaction time 10), 402 g/L; in [10] (reaction time 20), 302 g/L; in series [10] (reaction time 30), 199 g/L; in [10] (reaction time 60) it was 159 g/L; in series [10] (reaction time 180) it was 111 g/L. Besides, the maltotriose came to 88 g/L in series [10] (reaction time 5); 122 g/L in [10] (reaction time 10); 186 g/L in series [10] (reaction time 20); 248 g/L in series [10] (reaction time 30); 276 g/L in series [10] (reaction time 60); 304 g/L in series [10] (reaction time 180). Further, the “percentage of maltose transglycosylated” value in series [10] (reaction time 5) came out at 70.3%; in series [10] (reaction time 10), 72.7%; in series [10] (reaction time 20), 74.5%; in series [10] (reaction time 30), 73.3%; in [10] (reaction time 60) it was 74.7%; in series [10] (reaction time 180), 74.0%. In addition, the glucose in series [10] (reaction time 5, 600 g/L maltose, pH 3.0, 50° C.) stood at 59 g/L; in series [10] (reaction time 10), 76 g/L; in series [10] (reaction time 20), 112 g/L; in series [10] (reaction time 30) it was 153 g/L; in series [10] (reaction time 60) it was 165 g/L; in series [10] (reaction time 180) it was 185 g/L.
